Experimental findings from PMC9186069 (2022) are described below.

The target in the test is T1, active C1r (human, UniProt P00736).
T1 chain 1: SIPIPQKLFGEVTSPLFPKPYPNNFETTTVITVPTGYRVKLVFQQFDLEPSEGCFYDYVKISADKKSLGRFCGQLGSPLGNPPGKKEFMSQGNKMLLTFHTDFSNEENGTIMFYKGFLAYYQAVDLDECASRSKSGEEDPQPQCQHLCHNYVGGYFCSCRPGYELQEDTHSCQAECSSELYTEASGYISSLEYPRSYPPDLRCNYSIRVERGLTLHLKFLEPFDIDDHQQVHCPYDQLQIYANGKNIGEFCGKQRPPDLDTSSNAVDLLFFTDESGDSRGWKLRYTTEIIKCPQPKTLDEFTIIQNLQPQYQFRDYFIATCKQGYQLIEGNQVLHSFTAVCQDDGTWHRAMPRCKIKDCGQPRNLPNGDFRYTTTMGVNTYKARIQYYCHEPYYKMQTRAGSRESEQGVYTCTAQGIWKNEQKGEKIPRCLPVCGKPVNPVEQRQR
T1 chain 2: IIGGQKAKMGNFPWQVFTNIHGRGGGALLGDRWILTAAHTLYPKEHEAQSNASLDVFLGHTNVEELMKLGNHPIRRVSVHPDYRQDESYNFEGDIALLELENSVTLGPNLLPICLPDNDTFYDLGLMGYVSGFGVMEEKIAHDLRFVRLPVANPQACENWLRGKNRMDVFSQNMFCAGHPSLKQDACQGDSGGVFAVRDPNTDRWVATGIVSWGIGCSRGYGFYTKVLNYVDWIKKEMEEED
The test can be described thus: SPR. (SPR reads the build-up and loss of mass on a sensor chip optically.)

B1: FbpB-Δ5C (domain or fragment)
chain: GSTGSETRLDNQYKFNLNKTTNSVEQALKIAQQIKDDLDTIEFHRIKLSNHYGIRAEEHEKQTAKEELSKFSKDKLEADLKKLLCEIEKSLNAATILTTHNEYHYGGNLQSDLSAKTTLDTLKTEVSSLISKIQNSNNKDHQAYPTSYYNDYQSYQALRNPYSKLTLVK
modifications: activated two-chain form, cleaved between 463 and 464 (cleavage limits from UniProt chain features), heavy and light chains disulfide-linked; plasma-purified glycoprotein; native C1r forms a Ca-dependent-complex homodimer, but the paper does not state stoichiometry
The term Kd denotes the free concentration of one partner at which half of the binding sites on the other are occupied at equilibrium, for simple one-to-one binding. Read a low Kd as higher affinity. B1 gave an equilibrium dissociation constant (Kd) of 2.1 nM.
